Assay: soluble on expression in E. coli; label from the status in PepcDB or PDB records
For “MEEYEFLVRVREAGGFDIEHLMDTKPSSCVIGCREFDNNDDYNAHIVLFARMGIHKYNMIQGTNLQLSCVEKYNYRSPRVYSAFYITLIAKDPDACNSLVTFQTRVVEEGFNMTKLSCNIARPKPGPQENAALPRHSVDLEPVKKSELLTHDWIRLYMELAFLKAHLRSPKNPNLSKLVIVMVAIETKDNMEPPSERLKARNAFFYIKYKYHANKGRGPKRRLGHKTPDRIAIVRRTLDKNTGYLTLEFPEPIL”, the “soluble on expression in E. coli” value was “soluble”.
In the case of “MIKFSIRGENIEVTEAIRDYVESKLTKIEKYFAKDQEIDARVNLKVYRERSSKVEVTIPLDSVTLRAEDVSQDMYGSIDLVVDKIERQIRKNKTKIAKKHREKVPTGQVFTTEFEAEEVDEIPEVQVVRTKNVTLKPMDVEEARLQMELLGHDFFIYTDSEDGATNILYRREDGNLGLIEAKLEHHHHHH”, the “soluble on expression in E. coli” value is reported as “soluble”.
In the case of “DIGCYTLGALPPFREQDSATNMGSSLGISNGVFRSTDQVPVAVIGDSTFFHSGIEGVANAVYNNTAEIIVVLDNRSTAMTGQQPSPSTAIDIGNVCRAMGIEYVETFDPFDVDAGEKAVQQAAEYVKKTLKPAVIIAKRACALEVLEKVDSETPKAYVDSNRCT”, the “soluble on expression in E. coli” value is reported as “not soluble”.
With “MGHHHHHHSHGFYTIKEAERGVVTRFGKFSHLVEPGLNWKPTFIDEVKPVNVEAVRELAASGVMLTSDENVVRVEMNVQYRVTNPEKYLYSVTSPDDSLRQATDSALRGVIGKYTMDRILTEGRTVIRSDTQRELEETIRPYDMGITLLDVNFQAARPPEEVKAAFDDAIAARENEQQYIREAEA” the “soluble on expression in E. coli” value was “soluble”.
In the case of “MSKVIIPKIVGHRGVGKEGLAPENTLRSFVLCMERNIPYIETDLRVCKTGEIVLFHGTPEGTIPFYKDGTSRIGDLSLEELKRLDVGGGHTIPSLEELFVAIEEQKFNLKLNLELKGEEWKRKESGDHQRLLLLVEKYHMQERVDYCSFHHEALAHLKALCPDVKITYLFNYMGQPTPLDFVEQTQKACYGDANGVSMLFHYLTKEQVCTAHEKGLSVTVWMPWIFDDSEEDWKKCLELQVDLICSNYPFGLMNFLSNISE”, the “soluble on expression in E. coli” value is reported as “soluble”.
With “MSLTELSAFPITRKWPAKHPERLQLYSLPTPNGVKVSIMLEEIGLAYEAHKVSFDNDDQLSPEFISLSANNKIPAILDPNGPGGQPLALFESGAILQYLAEKSGQLLSQDPAQRYQTLQWLMFQMGGIGPMFGQVGFFHFFAGKEYEDKRPRDRYVNESKRLLGVLDRHLKGRQWMAEEYSIADIAIFPWVRNLVERYNARDLVGFDQFKEVQRVLANFLERPAVQRGLKIPGEGHHHHHH” the “soluble on expression in E. coli” value was “soluble”.
In the case of “MSTRFRLSLALLTTLVLSACDDAPRFTHAEPGEALSGGSATVRKSDQNAFSMPSANLSPVRRLDFSVGNSFFRSPWVIAPSTTTARDGLGPLFNTNACQNCHIKDGRGHPPEAGDSNAVSMLVRLSIPDDPAYADLIRRNGVLPEPTYGGQLQDMSNPGVAPEGKVRVEYDALTVNFRDGTAVELRQPTLRITQLGYGPMHPETHISARIAPPMIGLGLLEAIADDAILANADPDDKNADGISGRPNWVWDDVQQKVVMGRFGWKAGQPNLNQQNVHAFSGDMGLTTSLRRVDDCTPAQTDCLVAPNGNGPDGEPEVSDNILRLVEFYTRNLGVPARRKVADPQVLAGKNLFFEAGCQQCHTPSFKTRSDAAQPELANQDIRPYSDLLLHDMGEGLADNRTEFQATGREWRTPPLWGLGLTETVSGHTQLLHDGRARNMLEAILWHGGEAQAAQRRVLAFDAEQREALLAFLNSL”, the “soluble on expression in E. coli” value is reported as “not soluble”.
In the case of “MHEQLNSRVETCYLQAETFFKRTFKRPVVSFQLRGQKAGVAHLHENLLRFNPQLYQENAEDFLRQTVPHEVAHLVAHQLFGGGIQPHGEEWQLIMRGVYELPPNRCHTYAVQRRSVIRYIYRCPCPDSDFPFTSQRHSMVRKGRRYLCRRCREPLMFSGETRTELEHHHHHH”, the “soluble on expression in E. coli” value is reported as “not soluble”.
For “MGSDKIHHHHHHMSLTNVLFLAEELRVGGAETYFYKIENKIDLKKINFYTAAVNGRCFDKLNNKHMYFEYEKGLFSKIKTIKKIVISKNINVIHANSLRLAIISSIVKKLYKKDLKIVYTKHNLTILEKIHTKLFSAFVNKNVDIVLAVCNKDRDNMISIGVSEEKVKVIPNSIDLKHFKFNSKYLRDAGKDFKVGMLSRLSKEKNHEFFLDIAEKADFRALIGGDGPLREEINNRIEKSNLKKKVKMLGNIENSYEFLSSVDVMLLVSTREIFPMTLLEAMAVGTIVISVDIGGIRDCVINDKTGYVIDDYQSEKFITKISDILSDYDKNKELISAARELVENSFNLDITIDELQRLYGEVGL”, the “soluble on expression in E. coli” value was “not soluble”.
In the case of “ICMNVENKVTHKPLEFNYTDKYCGNVKNLISCKLYQHALTLIDSFRKDKTI”, the “soluble on expression in E. coli” value is reported as “not soluble”.
In the case of “MGAAAAPEVNMELVGHFGGTTDAVDVAGNYAYVGQGQDFLILDITNPSSPVLVSKIMTEGFVRDIKVSRNYAYVADDDNGLVIVDISNPSSPTLKGSYNIPGYTYCITVSGNYAYVADNDGLVIVDISNPSDPILKGRYAGPTGDVAVYGNYAYVADWGNGLMIVDISNPSSPVLKGSYDTAGDIYGVSISGNYAYVADGDTGLVIVDISNPSSPTLKGNYNTAGIACDVSVLGNYAYVADNDNGLVIVDISDPSSPVLKGNGSTTGYAHGIEVSGNYAYVANSNTGLVIVDISNPSSPTLKGSCDTIVRAKSIAVSGNYAYIADWDNGLVIVDISNPSSPFLKGSCDTPRSAQGVAVSGNYAYVADDDGLVIVDISNPSFPILNKSYNTGGWAQGITVSGNYAYVIDMANGIFIVDISNPSSPILEGMYDTSPIIIENYDYTGSIWSVSVSGNYAYVADEGNGLLIVDISNPSSPILKGSYDTAGLAYDVAVSGNYAYVADSKNGLAIIDISNPSSPILVGNYNTSGYAECVSISGNYAYVAVDDSLVVVDISNPSSPILKGLYAGSAGDIAVSGNYVYASEGVNGLVILKANPESAFTVADFSSNITSGYAPLSIQFNDHSQNATSWNWDFGDGYNSTNQNPIHTYSSAGTYTVNLTVINENRTASKVAKIFVLNTSLEHHHHHH”, the “soluble on expression in E. coli” value is reported as “not soluble”.
With “MGSDKIHHHHHHMIHFVPPHLEKVRAKLPEIAPTVDVILANLEDAIPADAKGAALAGLVAMSREVDFKALGVGFWTRINCLNSPWHLDEIATIVEKAGDKIDVIMVPKVEGPWDIFYMDQLLASLEAKHGVTRPILLHAILETAEGVMNVEAIAAASPRMQGISLGPADLAASRAMKTTRVGGGHPGYRVIEDPHADGSARVSVQQDLWHYTFAKMVDACAAHGIKPFYGPFGAIDDPVACEQQFRNAFLMGCAGAWSLHPSQIEIAKRVFSPDPAEVAFAKKILEAMPDGTGVAMIDGKMQDDATWKQAKVMVDCARQIAGKDAEYAGLYGL” the “soluble on expression in E. coli” value was “not soluble”.
With “MCFSFIMPPAMADILDIWAVDSQIASDGSIPVDFLLPTGIYIQLEVPREATISYIKQMLWKQVHNYPMFNLLMDIDSYMFACVNQTAVYEELEDETRRLCDVRPFLPVLKLVTRSCDPGEKLDSKIGVLIGKGLHEFDSLKDPEVNEFRRKMRKFSEEKILSLVGLSWMDWLKQTYPPEHEPSIPENLEDKLYGGKLIVAVHFENCQDVFSFQVSPNMNPIKVNELAIQKRLTIHGKEDEVSPYDYVLQVSGRVEYVFGDHPLIQFQYIRNCVMNRALPHFILVECCKIKKMYEQEMIAIEAAINRNSSNLPLPLPPKKTRIISHVWENNNPFQIVLVKGNKLNTEETVKVHVRAGLFHGTELLCKTIVSSEVSGKNDHIWNEPLEFDINICDLPRMARLCFAVYAVLDKVKTKKSTKTINPSKYQTIRKAGKVHYPVAWVNTMVFDFKGQLRTGDIILHSWSSFPDELEEMLNPMGTVQTNPYTENATALHVKFPENKKQPYYYPPFDKIIEKAAEIASSDSANVSSRGGKKFLPVLKEILDRDPLSQLCENEMDLIWTLRQDCREIFPQSLPKLLLSIKWNKLEDVAQLQALLQIWPKLPPREALELLDFNYPDQYVREYAVGCLRQMSDEELSQYLLQLVQVLKYEPFLDCALSRFLLERALGNRRIGQFLFWHLRSEVHIPAVSVQFGVILEAYCRGSVGHMKVLSKQVEALNKLKTLNSLIKLNAVKLNRAKGKEAMHTCLKQSAYREALSDLQSPLNPCVILSELYVEKCKYMDSKMKPLWLVYNNKVFGEDSVGVIFKNGDDLRQDMLTLQMLRLMDLLWKEAGLDLRMLPYGCLATGDRSGLIEVVSTSETIADIQLNSSNVAAAAAFNKDALLNWLKEYNSGDDLDRAIEEFTLSCAGYCVASYVLGIGDRHSDNIMVKKTGQLFHIDFGHILGNFKSKFGIKRERVPFILTYDFIHVIQQGKTGNTEKFGRFRQCCEDAYLILRRHGNLFITLFALMLTAGLPELTSVKDIQYLKDSLALGKSEEEALKQFKQKFDEALRESWTTKVNWMAHTVRKDYRS” the “soluble on expression in E. coli” value was “soluble”.
In the case of “SNAEMSYELAQHGRSTLPRELAVYALEGPFFFAAAETFERVMGSIQETPQILILRLKWVPFMDITGIQTLEEMIQSFHKRGIKVLISGANSRVSQKLVKAGIVKLVGEQNVYPVFEGALSAALTEIEAQP”, the “soluble on expression in E. coli” value is reported as “soluble”.
With MCMPLLPGEQQHLLIDRLEKRVPTAAGEGATTKL the “soluble on expression in E. coli” value was “not soluble”.
In the case of “MGSDKIHHHHHHMTNQLLSEQWFEHQAKVTEAIGRPGFAASLFAALGVIRPIQATTVYLYPHDGMPCALFEQDDKAPWQPEGNVSRYLSGFYLLDPFYGACVEQVESGCYGLFEVAPDHFEVSEYYQSFYRHSHLEDELNYILQVAPGQSLAVSLAFTDKLDGQSRTRFGLITPWVLAVLGKHFAGLDSRAGRFENILEQRIHAALNNFGSSLLTERECRIAQLILRGHSTKSLAERLGVSEDTIKSHRKNVYAKLDIGTQSELFSLFIDALANAQGVLGKDPLESYMGKLR”, the “soluble on expression in E. coli” value is reported as “not soluble”.
In the case of “MAHHHHHHMRLIESRQMHEWDNAADSSLDVDHPEDAPFGQGPERQQQRDGKSNLGDQSDYGEEARTEATWLWRFGFPRTEDEKAYVASHLWSKGLRRRVAQLTDVRRRGRPGEFVIGVPEGLQHLREQRERLERERFGGVKVFPPQNA”, the “soluble on expression in E. coli” value is reported as “not soluble”.
In the case of “MAHHHHHHMFKQRDNEYHPPMTVDPSGGGVTTSAGVFGEVGMGNVASPFLDGPAAVAGSRKRGRDIRSLDRFRAVVYGEDGFRRLHAMVARNPVLMYPPDGIEAARARVMVRKAELQSQLRSALGHREHNRNPADNGDDDVFALFEARRRAESDVHPATEGEEVPRQPASEHAPLPSSLASIRQDEELATYHHKQLDSYLRLLYEFNHATFVKLPMEDTLRLLSRCGKEAVAHIVEYETQVRLRRQSRIRDLNELRQEQAALEERRLAIDDAEQARLVQSAELRQAELDLELDNGVVKAEPPDDGSADEDVKVILETSSSSVHFASLPAGDSPEENMDGIVMAVEDEGIQYT”, the “soluble on expression in E. coli” value is reported as “not soluble”.
In the case of “HAIFEREGNNLYCEVPINFTMAALGGEIEVPTLDGRVNLKIPGETQTGKLFRMRGKGVKSVRGGAQGDLLCRVVVETPVGLNEKQKQLLKELQESFGGPTGENN”, the “soluble on expression in E. coli” value is reported as “not soluble”.
In the case of “SLVIIYDGDSYGISKRIDYMLNSTTSSGKRTGILAIGAHPDDIELGCGASLSYYSNEKVYIISVVMTPGCCGAEYIDRHKESQEALNMLGCNKLIPLNFEDTRLYLQIKEMISSLEYIIENETPQDVEITRVYTMNNTDRHQDHIAVYQASMVACRYIPQILGYETPSTCLSFLPQVFESVDEVHFNKKILALQKHKSQIHRRYIQPEYIIAQAKFRGQQVSHSMCEGFVVHKMVL”, the “soluble on expression in E. coli” value is reported as “soluble”.
For “MDIKINDITLGNNSPFVLFGGICVLESLDSTLQTCAHYVEVTRKLGIPYIFKASFDKANRSSIHSYRGVGLEEGLKIFEKVKAEFGIPVITDVHEPHQCQPVAEVCDVIQLPAFLARQTDLVVAMAKTGNVVNIKKPQFLSPSQMKNIVEKFHEAGNGKLILCERGSSFGYDNLVVDMLGFGVMKQTCGNLPVIFDVTHSLQTRDAGSAASGGRRAQALDLALAGMATRLAGLFLESHPDPKLAKCEGASALPLHLLEDFLIRIKALDDLIKSQPILTIE”, the “soluble on expression in E. coli” value was “soluble”.
For “MYKQIILACDGSEHALRAAEHATYIAKCSEETNVEVVYVVDNRTAKSDIIQGQTDLETISASRKDKLKEIEGLLKKENISYTITILHGDPGDTIVQYVNTGDIDLVIAGSRGLNTLQEMVLGSVSHKIAKRVKCPVMIVK”, the “soluble on expression in E. coli” value was “not soluble”.
